From paper PMC11530556 come the findings set out here.

The target in this experiment is full-length Titin N2B unique sequence (N2B-us) single-molecule construct, 6His-Avi-2I27-N2B-2I27-Spy (human). The experiment can be described thus: magnetic tweezers single-molecule manipulation; full-length N2B-us tether; jump to 8 pN procedure: 1 pN for 10 s, 8 pN for 20 s, back to 1 pN; bead height difference at 1 pN; 200 nM FHL2; five tethers.
Chain of full-length Titin N2B unique sequence (N2B-us) single-molecule construct, 6His-Avi-2I27-N2B-2I27-Spy (human) (Q8WZ42 3717-4288): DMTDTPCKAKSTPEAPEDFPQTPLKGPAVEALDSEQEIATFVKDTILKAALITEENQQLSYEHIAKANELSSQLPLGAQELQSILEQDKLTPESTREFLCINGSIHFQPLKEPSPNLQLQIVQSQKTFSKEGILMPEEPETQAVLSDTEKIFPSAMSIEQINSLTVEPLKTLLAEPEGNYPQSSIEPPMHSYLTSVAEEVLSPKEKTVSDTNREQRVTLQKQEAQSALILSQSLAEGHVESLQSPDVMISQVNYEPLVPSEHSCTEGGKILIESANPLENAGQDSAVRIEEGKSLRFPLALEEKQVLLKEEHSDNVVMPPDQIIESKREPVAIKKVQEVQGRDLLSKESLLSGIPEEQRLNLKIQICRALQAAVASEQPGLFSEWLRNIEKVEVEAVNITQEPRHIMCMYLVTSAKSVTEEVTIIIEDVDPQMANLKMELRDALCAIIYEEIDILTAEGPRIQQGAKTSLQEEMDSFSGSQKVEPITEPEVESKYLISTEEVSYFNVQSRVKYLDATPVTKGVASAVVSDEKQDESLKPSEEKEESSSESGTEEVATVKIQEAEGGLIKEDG

As to “Recombinant GST-FHL2 protein (four-and-a-half LIM domain protein 2) (natural protein)”, the average extension difference at 1 pN before and after 20 s at 8 pN, with 200 nM FHL2 was 10 nm.
